What was measured:
[1] = target: T1, Zika virus envelope protein, strain ILM (Brazil Paraiba 2015) (Zika virus strain ILM (Brazil Paraiba …))
T1 construct: also called Zika strain ILM; Zika virus EP

[2] = target: T2, Zika virus envelope protein, strain MR766-NIID (Uganda 1947) (Zika virus strain MR766-NIID (Uganda …, UniProt Q32ZE1 291-790))
[3] = target: T2, Zika virus envelope protein, strain …; remark: listed apart in the source
[4] = target: T1, Zika virus envelope protein, strain ILM …; test: cell-based or functional assay
[5] = target: Zika virus envelope protein, strain H/PF/2013 (French Polynesia 2013) (Zika virus strain H/PF/2013 (French …, UniProt A0A024B7W1 291-794)); test: cell-based or functional assay

Binder	Kd [1]	Kd [2]	EC50 (read off the curve) [3]	PRNT50 [4]	ADE, viral titers at peak enhancement in THP1.2S cells [5]	PRNT50 [5]
mAb 7 (antibody, V domains shown, also called VH.2 / VL.4) VH: EVQLLESGGGLVQPGGSLRLSCAASGFSFSTYSMHWVRQAPGKGLEWVSAISGEGDSAYYADSVKGRFEISRDNSKNTLYLQMNKVRAEDTAVYYCVGGYSNFYYYYTMDAWGQGTMVTVSS VL: DIVMTQSPASLSLSPGERATLSCRATQSIVTFLAWYQQKPGQAPRLLIYDASTNASGIPARFSGSRSGTDFTLTITRLEPEDFAVYYCQQRYNWPPYSFGQGTKLEIK	5.21 µg/mL	0.0265 µg/mL	~0.03 µg/mL			
mAb 8 (antibody, V domains shown, also called VH.1 / VL.2) VH: EVQLLESGGGLVQPGGSLRLSCAASGFSFSTYSMHWVRQAPGKGLEWVSAISGEGDSAYYADSVKGRFTISRDNSKNTLYLQMNKVRAEDTAVYYCVGGYSNFYYYYTMDAWGQGTMVTVSS VL: DIVMTQSPASLSLSPGERATLSCRATQSISTFLAWYQQKPGQAPRLLIYDASTRASGIPARFSGSRSGTDFTLTITRLEPEDFAVYYCQQRYNWPPYSFGQGTKLEIK	19.3 µg/mL		~0.03 µg/mL	5.12 µg/mL	≥ 3 fold	5.09 µg/mL
fusion loop targeting pan-flavivirus antibody 4G2 (antibody, V domains shown) VH: EVQLQQSGPELVKPGTSVKISCKTSGYTFTEYTIHWVKQSHGKSLAWIGGIDPNSGGTNYSPNFKGKATLTVDKSSSTAYMDLRSLSSEDSAVYFCARIYHYDGYFDVWGAGTAVTVSS VL: DIKMTQSPSSMYASLGERVTITCKASQDINSYLTWFQQKPGKSPKTLIYRANRLIDGVPSRFSGSGSGQDYSLTISSLDYEDMGIYYCLQYDEFPPTFGGGTKLEIKR	6.41 µg/mL					
mAb 3 (antibody, V domains shown, also called VH.4 / VL.3) VH: EVQLVESGGGLVQPGGSLRLSCSASGFTFSTYSMHWVRQAPGKGLEYVSAITGEGDSAFYADSVKGRFTISRDNSKNTLYFEMNSLRPEDTAVYYCVGGYSNFYYYYTMDVWGQGTTVTVSS VL: EIVLTQSPATLSLSPGERATLSCRASQSISTFLAWYQHKPGQAPRLLIYDASTRATGVPARFSGSRSGTDFTLTISTLEPEDFAVYYCQQRYNWPPYTFGQGTKVEIK		0.0248 µg/mL	~0.8 µg/mL			
mAb 6 (antibody, V domains shown, also called VH.3 / VL.1) VH: EVQLVESGGGLVQPGGSLRLSCSASGFSFSTYSMHWVRQAPGKGLEYVSAITGEGDSAFYADSVKGRFTISRDNSKNTLYFEMNSLRPEDTAVYYCVGGYSNFYYYYTMDAWGQGTSVTVSS VL: EIVLTQSPASLSLSPGERATLSCRATQSISTFLAWYQHKPGQAPRLLIYDASTRASGVPARFSGSRSGTDFTLTISSLEPEDFAVYYCQQRYNWPPYSFGQGTKVEIK	3.85 µg/mL		~0.03 µg/mL	0.0597 µg/mL		

— patent US20190315838A1 (MIT, published 2019)
